Key:
[1] = target: human Fc receptor CD64-GST fusion protein (human) (UniProt P12314); assay: ALPHA competition assay: test antibody competes with biotinylated wild-type IgG1 (m7) for the receptor-GST fusion; panel title huCD64 [continued) D]
[2] = target: human Fc receptor CD16-GST fusion protein (human) (UniProt P08637); assay: ALPHA competition assay: test antibody competes with biotinylated wild-type IgG1 (m7) for the receptor-GST fusion; panel title huCD16a V
[3] = target: LINGO-1 (human) (UniProt Q96FE5); assay: Cell bridging assay; fit of an essentially flat control curve (see non_binding); the axis on the sheet has no unit, µg/mL is from paragraph 391

Sequence of human Fc receptor CD16-GST fusion protein (human) (P08637 17-208): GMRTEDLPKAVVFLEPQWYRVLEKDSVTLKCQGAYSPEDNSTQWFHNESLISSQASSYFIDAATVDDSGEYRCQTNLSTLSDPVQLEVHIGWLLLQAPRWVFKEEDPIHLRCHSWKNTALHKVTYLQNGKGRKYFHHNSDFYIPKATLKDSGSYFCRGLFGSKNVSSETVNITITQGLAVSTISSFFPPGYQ
Sequence of human Fc receptor CD64-GST fusion protein (human) (P12314 16-292 limits assumed): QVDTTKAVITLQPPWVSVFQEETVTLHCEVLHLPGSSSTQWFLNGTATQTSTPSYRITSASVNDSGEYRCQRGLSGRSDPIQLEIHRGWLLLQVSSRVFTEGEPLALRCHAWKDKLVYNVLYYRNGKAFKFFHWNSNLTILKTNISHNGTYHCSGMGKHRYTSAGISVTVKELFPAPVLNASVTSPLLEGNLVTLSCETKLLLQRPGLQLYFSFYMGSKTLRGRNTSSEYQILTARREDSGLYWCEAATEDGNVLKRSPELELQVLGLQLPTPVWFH

Substance | IC50 [1] | IC50 [2] | C (midpoint parameter of the printed 4-parameter fit) [3]
agly 5c8 T299A (JF) (antibody) | 25 µg/mL | 62 µg/mL | –
huIgG1 (antibody) | – | – | 3.55 µg/mL
